Results as given in patent publication US5789539, “Chemokine-like proteins and methods of use” (Repligen Corporation, dated 1998).
Residue numbers refer to the chain shown, from its start.

B1: wild-type platelet factor 4 (PF4) (ligand)
chain: EAEEDGDLQCLCVKTTSQVRPRHITSLEVIKAGPHCPTAQLIATLKNGRKICLDLQAPLYKKIIKKLLES
B2: PF4M1 (ligand)
chain: B1 chain with Q9R
B3: PF4M2 (ligand)
chain: MSAKELRCQCVKTTSQVRPRHITSLEVIKAGPHCPTAQLIATLKNGRKICLDLQAPLYKKIIKKLLES

Key:
[1] = target: T1, human neutrophil IL-8 receptor subtype B (huIL8Rb) (human, UniProt P25025); test: competition with 0.5 nM 125I-labeled IL-8 on CHO cells expressing huIL8Rb; "NC" indicates no competition
Description: (§1) receptor subtype B (huIL8Rb), was used in binding assays to test mutant chemokine binding. Approximately 5×10^3 cells were plated in the wells of a 96 well plate and grown for 2 to 3 days. The medium was replaced with phosphate-buffered saline (PBS) supplemented with 0.5% BSA (PBS/BSA), 0.5 nM ^125I-labeled IL-8, and increasing concentrations of the various unlabeled chemokines. The plates were incubated on ice for 90 minutes, the binding mixture was removed, and the cells were washed three times with ice-cold PBS/BSA. The cells were removed from the plates with trypsin-EDTA (Gibco), and the radioactivity of the entire contents of the well determined by gamma counting. Binding of each chemokine to untransfected cells, or binding in the presence of 2 μM unlabeled IL-8, was determined and the value obtained used as the background value. Binding data was plotted as percent of mean specific binding (total binding minus background/specific binding with no competitor). […] "NC" indicates no competition.

[2] = target: T1, human neutrophil IL-8 receptor subtype …; test: competition with 0.5 nM 125I-labeled IL-8 on CHO cells expressing huIL8Rb
Description: as §1

binding result [1] | Ki [2] | Binder
no binding |  | B1
 | 839 nM | B2
 | 52 nM | B3
